One may read the stoichiometry N as a count of units in the complex or per binding partner.

This assay has as its target HR2 peptide of the SARS-CoV-2 spike (H1159-K1211), His-SUMO removed (SARS-CoV-2) (UniProt P0DTC2). The assay is described as follows: crystal structure.

In the case of “HR2 peptide of the SARS-CoV-2 spike (H1159-K1211), His-SUMO removed (from UniProt P0DTC2 1159-1211) (domain or fragment)”, the stoichiometry N was 3.

The values are drawn from article PMC12125293.
